Test results published in the supplement of paper PMC9112550, “Optimization of the antimicrobial peptide Bac7 by deep mutational scanning” (BMC Biology, 2022).

What follows are sequences tested on Escherichia coli TOP10 (assay: shrunken log2 fold change of peptide-encoding DNA abundance (4.5 h post-induction vs induction); higher = less antimicrobial activity (less host growth inhibition)). Conditions: time post-induction: 4.5 h; library: site-saturation at positions 5, 18, 19, 20.
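Also: peptides expressed intracellularly from a pBAD plasmid library in pooled LB shake-flask culture, induced with 0.3% L-arabinose, DNA abundance read by NGS, three biological replicates, DESeq2 with apeglm shrinkage.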

| Sequence | shrunken log2 fold change |
| --- | --- |
| RRIRNRPPRLPRPRPRPSKYPRP | -0.532 |
| RRIRNRPPRLPRPRPRPSLEPRP | -0.208 |
| RRIRNRPPRLPRPRPRPSLQPRP | -0.0436 |
| RRIRNRPPRLPRPRPRPSMAPRP | -0.139 |
| RRIRNRPPRLPRPRPRPSNMPRP | -0.429 |
| RRIRNRPPRLPRPRPRPSNWPRP | -0.203 |
| RRIRNRPPRLPRPRPRPSPRPRP | 0.0772 |
| RRIRNRPPRLPRPRPRPSQNPRP | -0.386 |
| RRIRNRPPRLPRPRPRPSQQPRP | -0.111 |
| RRIRNRPPRLPRPRPRPSQRPRP | -0.0448 |
| RRIRNRPPRLPRPRPRPSRKPRP | -0.21 |
| RRIRNRPPRLPRPRPRPSTPPRP | -0.103 |
| RRIRNRPPRLPRPRPRPSVCPRP | -0.174 |
| RRIRNRPPRLPRPRPRPSVMPRP | -0.281 |
| RRIRNRPPRLPRPRPRPSVVPRP | -0.0462 |
| RRIRNRPPRLPRPRPRPSWEPRP | -0.32 |
| RRIRNRPPRLPRPRPRPSWYPRP | -0.81 |
| RRIRNRPPRLPRPRPRPSYVPRP | -0.0484 |
| RRIRNRPPRLPRPRPRPTCGPRP | 0.073 |
| RRIRNRPPRLPRPRPRPTCQPRP | 0.0956 |
| RRIRNRPPRLPRPRPRPTCSPRP | -0.261 |
| RRIRNRPPRLPRPRPRPTEIPRP | -0.319 |

| Sequence | shrunken log2 fold change |
| --- | --- |
| RRIRNRPPRLPRPRPRPTGCPRP | -0.0633 |
| RRIRNRPPRLPRPRPRPTGFPRP | -0.0139 |
| RRIRNRPPRLPRPRPRPTGQPRP | -0.115 |
| RRIRNRPPRLPRPRPRPTHQPRP | 0.194 |
| RRIRNRPPRLPRPRPRPTIDPRP | -0.492 |
| RRIRNRPPRLPRPRPRPTIKPRP | -0.496 |
| RRIRNRPPRLPRPRPRPTIPPRP | -0.605 |
| RRIRNRPPRLPRPRPRPTKAPRP | -0.00132 |
| RRIRNRPPRLPRPRPRPTKMPRP | 0.00053 |
| RRIRNRPPRLPRPRPRPTKWPRP | -0.2 |
| RRIRNRPPRLPRPRPRPTMWPRP | -0.0923 |
| RRIRNRPPRLPRPRPRPTPGPRP | 0.312 |
| RRIRNRPPRLPRPRPRPTPHPRP | 0.284 |
| RRIRNRPPRLPRPRPRPTQRPRP | 0.582 |
| RRIRNRPPRLPRPRPRPTSPPRP | 0.113 |
| RRIRNRPPRLPRPRPRPTSWPRP | -0.228 |
| RRIRNRPPRLPRPRPRPTSYPRP | 0.00322 |
| RRIRNRPPRLPRPRPRPTVMPRP | 0.178 |
| RRIRNRPPRLPRPRPRPTVWPRP | 0.563 |
| RRIRNRPPRLPRPRPRPTWYPRP | 0.0037 |
| RRIRNRPPRLPRPRPRPTYFPRP | -0.147 |
| RRIRNRPPRLPRPRPRPTYIPRP | -0.603 |

| Sequence | shrunken log2 fold change |
| --- | --- |
| RRIRNRPPRLPRPRPRPTYPPRP | -0.275 |
| RRIRNRPPRLPRPRPRPTYQPRP | -0.0398 |
| RRIRNRPPRLPRPRPRPTYTPRP | -0.303 |
| RRIRNRPPRLPRPRPRPTYYPRP | -0.325 |
| RRIRNRPPRLPRPRPRPVAMPRP | -0.198 |
| RRIRNRPPRLPRPRPRPVAQPRP | 0.089 |
| RRIRNRPPRLPRPRPRPVCRPRP | 0.0204 |
| RRIRNRPPRLPRPRPRPVDGPRP | -0.175 |
| RRIRNRPPRLPRPRPRPVDRPRP | 0.148 |
| RRIRNRPPRLPRPRPRPVDYPRP | -0.0368 |
| RRIRNRPPRLPRPRPRPVEIPRP | -0.0323 |
| RRIRNRPPRLPRPRPRPVENPRP | -0.0754 |
| RRIRNRPPRLPRPRPRPVFDPRP | -0.152 |
| RRIRNRPPRLPRPRPRPVGCPRP | 0.618 |
| RRIRNRPPRLPRPRPRPVGDPRP | 0.0156 |
| RRIRNRPPRLPRPRPRPVGNPRP | -0.00879 |
| RRIRNRPPRLPRPRPRPVHGPRP | -0.0581 |
| RRIRNRPPRLPRPRPRPVHMPRP | -0.0948 |
| RRIRNRPPRLPRPRPRPVHRPRP | -0.0338 |
| RRIRNRPPRLPRPRPRPVHSPRP | -0.245 |
| RRIRNRPPRLPRPRPRPVKAPRP | -0.0518 |
| RRIRNRPPRLPRPRPRPVKWPRP | -0.286 |

| Sequence | shrunken log2 fold change |
| --- | --- |
| RRIRNRPPRLPRPRPRPVLEPRP | 0.183 |
| RRIRNRPPRLPRPRPRPVLVPRP | -0.211 |
| RRIRNRPPRLPRPRPRPVNHPRP | -0.163 |
| RRIRNRPPRLPRPRPRPVPQPRP | 0.24 |
| RRIRNRPPRLPRPRPRPVQEPRP | -0.0428 |
| RRIRNRPPRLPRPRPRPVQKPRP | -0.0122 |
| RRIRNRPPRLPRPRPRPVSEPRP | -0.253 |
| RRIRNRPPRLPRPRPRPVSFPRP | 0.0749 |
| RRIRNRPPRLPRPRPRPVSLPRP | -0.396 |
| RRIRNRPPRLPRPRPRPVWRPRP | 0.636 |
| RRIRNRPPRLPRPRPRPVWTPRP | -0.118 |
| RRIRNRPPRLPRPRPRPWAFPRP | -0.014 |
| RRIRNRPPRLPRPRPRPWATPRP | -0.188 |
| RRIRNRPPRLPRPRPRPWDVPRP | -0.0115 |
| RRIRNRPPRLPRPRPRPWFHPRP | -0.179 |
| RRIRNRPPRLPRPRPRPWFWPRP | 0.422 |
| RRIRNRPPRLPRPRPRPWGCPRP | -0.00572 |
| RRIRNRPPRLPRPRPRPWGMPRP | -0.214 |
| RRIRNRPPRLPRPRPRPWGYPRP | -0.123 |
| RRIRNRPPRLPRPRPRPWHRPRP | 0.049 |
| RRIRNRPPRLPRPRPRPWISPRP | -0.0184 |
| RRIRNRPPRLPRPRPRPWLHPRP | -0.0277 |

| Sequence | shrunken log2 fold change |
| --- | --- |
| RRIRNRPPRLPRPRPRPWMAPRP | -0.28 |
| RRIRNRPPRLPRPRPRPWMRPRP | 0.311 |
| RRIRNRPPRLPRPRPRPWPCPRP | -0.185 |
| RRIRNRPPRLPRPRPRPWPGPRP | 0.281 |
| RRIRNRPPRLPRPRPRPWQFPRP | -0.0175 |
| RRIRNRPPRLPRPRPRPWRPPRP | 0.337 |
| RRIRNRPPRLPRPRPRPWRQPRP | -0.0337 |
| RRIRNRPPRLPRPRPRPWSWPRP | 0.266 |
| RRIRNRPPRLPRPRPRPWVEPRP | -0.109 |
| RRIRNRPPRLPRPRPRPWVRPRP | -0.0742 |
| RRIRNRPPRLPRPRPRPWWMPRP | -0.0246 |
| RRIRNRPPRLPRPRPRPWWSPRP | 0.0428 |
| RRIRNRPPRLPRPRPRPWYPPRP | -0.215 |
| RRIRNRPPRLPRPRPRPYAKPRP | -0.257 |
| RRIRNRPPRLPRPRPRPYCTPRP | -0.169 |
| RRIRNRPPRLPRPRPRPYDTPRP | -0.22 |
| RRIRNRPPRLPRPRPRPYFDPRP | -0.0504 |
| RRIRNRPPRLPRPRPRPYFYPRP | -0.345 |
| RRIRNRPPRLPRPRPRPYHKPRP | -2.76 |
| RRIRNRPPRLPRPRPRPYHPPRP | -0.135 |
| RRIRNRPPRLPRPRPRPYKGPRP | -1.13 |
